Measured values published in patent US20260008817A1, “CYCLIC PEPTIDE OR SALT THEREOF, AND USES THEREOF” (FUJIFILM Corporation, priority 2023, published 2026).

Target: T1, FGFR3 Protein, Human, Recombinant (ECD, His Tag) (Homo sapiens, UniProt P22607)
T1 construct: FGFR3 Protein, Human, Recombinant (ECD, His Tag); His tag; purchased Sino Biological 16044-H08H
T1 sequence (P22607 23-375 limits assumed): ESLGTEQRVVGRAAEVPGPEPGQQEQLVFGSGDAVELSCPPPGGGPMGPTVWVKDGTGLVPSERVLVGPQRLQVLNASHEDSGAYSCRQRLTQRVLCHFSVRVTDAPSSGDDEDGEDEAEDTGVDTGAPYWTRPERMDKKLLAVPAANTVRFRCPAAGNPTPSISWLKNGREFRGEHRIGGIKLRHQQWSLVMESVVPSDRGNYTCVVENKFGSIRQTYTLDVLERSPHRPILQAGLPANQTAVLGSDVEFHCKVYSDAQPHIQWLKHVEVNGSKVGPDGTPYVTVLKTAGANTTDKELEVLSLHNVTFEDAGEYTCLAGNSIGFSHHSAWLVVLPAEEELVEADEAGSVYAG
Assay: SPR FGFR versatility, FGFR3 on immobilized cyclic peptide
Type: binding
Conditions: 1 μmol/L FGFR, 25° C.
Procedure: The binding of the cyclic peptide to various types of FGFRs was evaluated using a surface plasmon resonance (SPR) method.
The binding affinity of the chemically synthesized cyclic peptide to FGFR was evaluated by the following procedure.
A CM5 sensor chip (Cytiva, 29149603) was set in Biacore-T200 (manufactured by Cytiva) which is a surface plasmon resonance device, and an HBS-EP buffer (Cytiva, BR100826) was added as a running buffer at a flow rate of 10 μL/min to equilibrate the flow channel. Next, 70 μL of a mixed aqueous solution of 0.2 mol/L 1-(3-dimethylaminopropyl)-3-ethylcarbodiimide (EDC) and 0.05 mol/L N-hydroxysuccinimide (NHS) was added to activate the sensor chip. Then, a cyclic peptide prepared to 2 mg/mL in HBS-EP buffer was added thereto to perform immobilization at about 200 RU. […]
After various FGFRs (FGFR1 Protein, Human, Recombinant (His Tag) (Sino Biological, 10616-H08H), FGFR3 Protein, Human, Recombinant (ECD, His Tag) (Sino Biological, 16044-H08H), FGFR4 Protein, Human, Recombinant (His Tag) (Sino Biological, 10538-H08H)) diluted with HBS-EP to 1 μmol/L at 25° C. was added to each flow channel of the cyclic peptide-immobilized sensor chip prepared above, for 10 minutes, HBS-EP was allowed to flow as a running buffer for 30 minutes, and the binding of various FGFRs to the cyclic peptide was measured. […]

335 (ACVWTFDRHAQEISQALHKVKKK; not fully specified; Description of Artificial Sequence: Cyclic peptide) [compound 335]
Evaluation result of binding affinity to FGFR3: B (The binding amount is 0.01 molecules of FGFR/one molecule of the cyclic peptide or more and less than 0.05 molecules of FGFR/one molecule of the cyclic peptide.)
